This data set deals with the molecule itself. The data set is described as follows: crystal structure; PKM2 variant with Ser and FBP; hanging drop, 0.1 M Tris pH 7.5, 0.2 M NaCl, 14% PEG 3350, 4 °C; molecular replacement with PDB 4B2D.

B1: His-tagged PKM2 R399E (enzyme)
chain: not shown
notes: Pyruvate kinase isoform M2 (PKM2), engineered mutant R399E; full-length cDNA in pET28a, site-directed mutagenesis; Crystallised with Ser and FBP (PDB 5X0I); also called His-PKM2 R399E; source: E. coli BL21 (DE3), purified (cobalt-chelated TALON resin)
As to B1, the binding result was “binds”.
